The text below walks through data of publication PMC3940198.

The target of this experiment is Burkholderia cenocepacia cytosolic carboxypeptidase (BcCCP) (Burkholderia cenocepacia J2315). The experiment in a line: SEC-MALS; Superdex 200 10/300, 50 mM Tris-HCl, 250 mM NaCl pH 7.5; Wyatt miniDAWN TREOS and Optilab T-rEX detectors.

As to “Burkholderia cenocepacia cytosolic carboxypeptidase (BcCCP) (enzyme)”, the stoichiometry N was 4.
